In US20250296959A1, “B7-H3 TARGETING PEPTIDES AND CONSTRUCTS THEREOF” (Mariana Oncology Inc., priority 2024, published 2025):
Read-outs that look alike come from different tables or passages of the source. Values belong to the molecule of their own block, whether it stands above or below them. Starred links: 1 amine or outer side, 2 acyl side, 3 side chain; linkers in the order of their positions; H or OH if unused. Positions of bridges follow the written chain, without caps; N, C: chain ends. Non-standard residues stand in square brackets, D forms with d. Residues, ends and D or L forms follow the SMILES beside them. Groups on a side chain read outwards from the residue. Primed or numbered codes have the meaning given here. *: point of attachment. Ala(1-CH2CO2H-4-piperidyl) = N[C@@H](CC1CCN(CC(=O)O)CC1)C(=O)O; (2S,3S)beta‑Me‑Phe = C[C@@H](c1ccccc1)[C@H](N[*:1])C(=O)[*:2]; Ala(piperidin-4-yl) = O=C([C@H](CC1CCN([*:3])CC1)N[*:1])[*:2]; (2S,3S)βMePhe = C[C@@H](c1ccccc1)[C@H](N[*:1])C(=O)[*:2]; DOTA = O=C(O)CN1CCN(CC(=O)O)CCN(CC(=O)*)CCN(CC(=O)O)CC1; PipAla = piperidinyl-alanine residue (as named); Trp(5-F) = N[C@@H](Cc1c[nH]c2ccc(F)cc12)C(=O)O; X1 = C[C@@H](c1ccccc1)[C@H](N[*:1])C(=O)[*:2]; PEG4′ = 4x 3-(2-aminoethoxy)propanoic acid; γGlu = O=C(O)[C@H](CCC(=O)[*:2])N[*:1]; 1Nal = N[C@@H](Cc1cccc2ccccc12)C(=O)O; Ala(4-THP) = N[C@@H](CC1CCOCC1)C(=O)O; Val(3-OH) = CC(C)(O)[C@H](N)C(=O)O; 4Pal = N[C@@H](Cc1ccncc1)C(=O)O; PEG4 = NCCOCCOCCOCCOCCC(=O)O; Tle = CC(C)(C)[C@H](N)C(=O)O; hLeu = CC(C)CC[C@H](N)C(=O)O

Key:
[1] = molecular target: T1, 4lg-B7-H3 (Homo sapiens, UniProt Q5ZPR3, S143D); assay: X-ray crystal structure of compound bound to 4lg-B7-H3
T1 sequence (Q5ZPR3 29-456 S143D): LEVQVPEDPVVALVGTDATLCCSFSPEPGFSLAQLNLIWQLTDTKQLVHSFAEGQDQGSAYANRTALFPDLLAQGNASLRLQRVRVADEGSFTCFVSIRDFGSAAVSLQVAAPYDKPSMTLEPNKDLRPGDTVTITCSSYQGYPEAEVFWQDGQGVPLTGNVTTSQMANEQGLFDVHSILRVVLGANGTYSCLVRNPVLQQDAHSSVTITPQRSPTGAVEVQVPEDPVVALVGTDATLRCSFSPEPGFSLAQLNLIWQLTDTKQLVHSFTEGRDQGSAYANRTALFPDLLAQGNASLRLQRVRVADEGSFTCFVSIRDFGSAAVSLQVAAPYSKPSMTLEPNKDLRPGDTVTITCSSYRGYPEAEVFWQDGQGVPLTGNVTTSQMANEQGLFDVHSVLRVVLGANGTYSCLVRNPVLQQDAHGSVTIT
Protocol: The x-ray crystal structure of an exemplary compound of the disclosure bound to 4lg-B7-H3 was determined. Suitable constructs for B^7H3 expression had been previously established by PROTEROS. Expression of B^7H3 was performed according to previously established protocols. A purification protocol was established and homogeneous protein was produced in preparative amounts. The protein was purified comprising affinity and gel filtration chromatography steps. This procedure yielded homogenous protein with a purity greater 95% as judged from Coomassie stained SDS-PAGE. A 4lg-B7-H3 sequence from amino acid 29-456 was employed. The following sequence corresponds to amino acids 1-534 of 4lg-B7-H3:
The purified protein was used in crystallization trials employing both, a standard screen with approximately 1200 different conditions, as well as crystallization conditions identified using literature data. Conditions initially obtained have been optimized using standard strategies, systematically varying parameters critically influencing crystallization, such as temperature, protein concentration, drop ratio, and others. These conditions were also refined by systematically varying pH or precipitant concentrations.
A cryo-protocol was established using PROTEROS Standard Protocols. Crystals have been flash-frozen and measured at a temperature of 100 K. The X-ray diffraction data have been collected from complex crystals of 4lg-B7-H3 with the ligand of Cpd #200 at the SWISS LIGHT SOURCE (SLS, Villigen, Switzerland) using cryogenic conditions. The crystals belong to space group P 61 2 2. Data were processed using the programs autoPROC, XDS and autoPROC, AIMLESS. […]
Subsequent model building and refinement was performed according to standard protocols with COOT and the software package CCP4, respectively. For the calculation of the free R-factor, a measure to cross-validate the correctness of the final model, about 4.8% of measured reflections were excluded from the refinement procedure (Table 27). […]

[2] = molecular target: T2, human 4lg B7-H3 (Homo sapiens, UniProt Q5ZPR3); assay: Affinity determination by surface plasmon resonance (SPR) to 4Ig B7-H3
T2 sequence (Q5ZPR3 29-534): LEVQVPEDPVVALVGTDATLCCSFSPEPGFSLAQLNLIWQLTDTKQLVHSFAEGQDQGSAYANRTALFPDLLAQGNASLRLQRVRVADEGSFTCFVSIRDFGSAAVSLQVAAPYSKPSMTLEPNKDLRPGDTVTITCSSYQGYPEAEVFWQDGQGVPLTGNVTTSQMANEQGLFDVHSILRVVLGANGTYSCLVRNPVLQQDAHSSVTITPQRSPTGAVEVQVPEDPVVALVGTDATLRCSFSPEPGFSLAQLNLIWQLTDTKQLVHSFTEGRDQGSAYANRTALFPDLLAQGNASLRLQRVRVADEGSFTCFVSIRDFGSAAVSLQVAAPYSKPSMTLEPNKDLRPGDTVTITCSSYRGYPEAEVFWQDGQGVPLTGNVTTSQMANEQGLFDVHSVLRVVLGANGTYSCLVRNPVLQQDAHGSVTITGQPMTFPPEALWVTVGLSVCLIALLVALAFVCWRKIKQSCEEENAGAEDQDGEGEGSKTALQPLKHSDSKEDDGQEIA

[3] = test system: Calu-6 cell line; assay: Net internalization of [177Lu]Lu-labeled peptide in Calu-6 cells; type: cell-based, Human; details: 1 hour, 37° C., glycine pH 2.5 acid wash
Outline: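 Calu-6 cells, human non-engineered lung cancer expressing B7-H3, resuspended in 1% PBSA at 5 million cells/mL and incubated with the 177Lu-labeled conjugate (labeled at 80 °C, pH ~5, RP-HPLC checked). Gamma counting of the bound fraction, then of the pellet after two glycine pH 2.5 acid strips and NaOH lysis, gives internalized activity.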

[4] = test system: Calu-6 cell line; assay: Cell associated (bound) fraction of [177Lu]Lu-labeled peptide in Calu-6 cells; type: cell-based, Human; details: 1 hour, 37° C.
Outline: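 Detached B7-H3-expressing human lung cancer cells at 5 million/mL were exposed for 1 hour at 37 °C to 0.8 μCi of the 177Lu-labelled peptide, which was formulated in 1% PBSA after labelling at 80 °C, pH ~5. Supernatant and two cold washes counted as unbound, and resuspended cells gamma-counted as the cell-associated fraction.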

[5] = molecular target: T3, 2Ig B7-H3 (Homo sapiens, UniProt Q5ZPR3); assay: SPR binding affinity to 2Ig B7-H3
T3 sequence (Q5ZPR3 29-316 isoform Q5ZPR3-2 limits assumed): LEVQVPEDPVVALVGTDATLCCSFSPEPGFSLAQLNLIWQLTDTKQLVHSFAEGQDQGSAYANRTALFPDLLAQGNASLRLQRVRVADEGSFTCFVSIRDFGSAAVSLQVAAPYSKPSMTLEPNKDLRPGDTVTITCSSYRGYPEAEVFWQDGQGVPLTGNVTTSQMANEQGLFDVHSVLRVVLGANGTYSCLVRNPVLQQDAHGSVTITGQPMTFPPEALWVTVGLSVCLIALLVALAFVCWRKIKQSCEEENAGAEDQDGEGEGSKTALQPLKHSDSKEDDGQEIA

[6] = test system: Calu-6 tumors; assay: Ex vivo biodistribution of radiolabeled peptides in nude mice bearing Calu-6 tumors; details: [177Lu]Lu labeling, 24 h post-injection
Protocol: Mice were euthanized at pre-determined time points and selected tissues were resected and collected into pre-weighed tubes. The tubes were then reweighed post resection, the difference giving the weight of each tissue. Radioactivity in each tissue was measured using a gamma counter. Counts were decay corrected to the time of injection and percentage of injected activity per gram (% IA/g) was calculated for each tissue based on the injected activity into each individual mouse. Injected activity was converted to counts based on the sensitivity of the gamma counter. The counts in tissue were then converted to the percentage of injected activity and this was divided by the mass of tissue to give % IA/g.

[7] = molecular target: Biotinylated human 4Ig B7-H3 (human) (UniProt Q5ZPR3); assay: SPR 25C; A = KD<=1.0 nM
[8] = molecular target: Biotinylated human 4Ig B7-H3 (human) (UniProt Q5ZPR3); assay: SPR 37C; A = KD<=1.0 nM
[9] = molecular target: B7-H3 on Calu-6 cells (human) (UniProt Q5ZPR3); assay: 177Lu-labelled peptide on Calu-6 cells, % cell associated fraction; C = >50%
[10] = molecular target: 2Ig B7-H3 (UniProt Q5ZPR3); assay: SPR, 37C
[11] = molecular target: T4, B7-H3 on Calu-6 cells (human, UniProt Q5ZPR3 29-534); assay: 177Lu-labelled peptide on Calu-6 cells, % cell associated fraction; B = 25<%<=50
T4 construct: whole, on cells
T4 sequence (looked up): T2 sequence (Q5ZPR3 29-534)

Molecule: CC(=O)N[C@@H](CCC(C)C)C(=O)N[C@@H](Cc1ccc(O)cc1)C(=O)N[C@H]1CSSC[C@@H](C(=O)N[C@@H](Cc2c[nH]c3ccc(F)cc23)C(=O)N[C@@H](Cc2ccccc2)C(=O)N[C@H](C(=O)N[C@H](CCCCNC(=O)CN2CCN(CC(=O)O)CCN(CC(=O)O)CCN(CC(=O)O)CC2)C(N)=O)[C@@H](C)O)NC(=O)[C@H](Cc2ccc(O)cc2)NC(=O)[C@H](C(C)C)NC(=O)[C@H](CC(=O)O)NC(=O)[C@H](CC2CCOCC2)NC(=O)[C@H](CCCCN)NC(=O)CNC(=O)[C@H](C(C)C)NC1=O [compound 200, Ac-hLeu-Y-C-V-G-K-ThpA-D-V-Y-C-5FW-F-Thr-dLys(DOTA)-CONH2] (Ac-[hLeu]YCVGK[Ala(4-THP)]DVYC[Trp(5-F)]FT[dK](DOTA)-NH2; disulfide 3-11)
Resolution [Å] ([1]; complex crystals of 4lg-B7-H3 with ligand, parenthesis = highest resolution bin): 2.98 (3.28-2.98) Å
specific hydrogen bonds to 4lg-B7-H3 ([1]; distance of less than 3.5 Å of donor and acceptor atoms): eleven
ligand binding site in 4lg-B7-H3 ([1]; extracellular domain residues 29-456): bound between the Ig-like C2-type 1 and Ig-like V-type 2 domains
Kd ([2]; read-out: SPR KD—25° C., 4Ig B7-H3, 25° C. flow cell temperature): < 1 nM
Kd ([2]; read-out: SPR KD—37° C., 4Ig B7-H3, 37° C. flow cell temperature): 1 to 10 nM
% net internalization [3]: A (%≤25)
% cell associated fraction [4]: C (%>50)

Molecule: CC(=O)N[C@@H](CCC(C)C)C(=O)N[C@@H](Cc1ccc(O)cc1)C(=O)N[C@H]1CSSC[C@@H](C(=O)N[C@@H](Cc2c[nH]c3ccc(F)cc23)C(=O)N[C@H](C(=O)N[C@H](C(=O)N[C@H](CCC(=O)O)C(N)=O)C(C)(C)O)[C@@H](C)c2ccccc2)NC(=O)[C@H](Cc2ccc(O)cc2)NC(=O)[C@H](C(C)C)NC(=O)[C@H](CC(=O)O)NC(=O)[C@H](CC2CCN(C(=O)CCOCCOCCOCCOCCNC(=O)CN3CCN(CC(=O)O)CCN(CC(=O)O)CCN(CC(=O)O)CC3)CC2)NC(=O)[C@H](CC2CCN(CC(=O)O)CC2)NC(=O)CNC(=O)[C@H](C(C)(C)C)NC1=O [compound 496, Ac-hLeu-Y-C-Tbg-G-Pip(CH2COOH)Ala-Pip(PEG4-DOTA)Ala-D-V-Y-C-5FW-[(2S, 3S)beta-Me-Phe]-hydroxyVal-dGlu-CONH2] (Ac-[hLeu]YC[Tle]G[Ala(1-CH2CO2H-4-piperidyl)][Ala(piperidin-4-yl)]([PEG4-DOTA])DVYC[Trp(5-F)][X1][Val(3-OH)][dE]-NH2; disulfide 3-11)
Kd [5]: 526 nM
Kd [2]: < 1 nM
% net internalization [3]: A (%≤25)
% cell associated fraction [4]: B (25<%≤50)
kidney uptake (% IA/g) ([6]; kidney): C (0 < % IA/g ≤ 10 in kidney)
tumor uptake (% IA/g) ([6]; tumor): A (0 < % IA/g ≤ 5 in tumor)

B1: Cpd 303 (peptide)
peptide: Ac-[hLeu]YC[Tle]GK[Ala(4-THP)]DVYC[Trp(5-F)]F[Val(3-OH)][dK](DOTA)-OH
modifications: disulfide 3-11 (inferred)
KD [7]: < 1 nM
KD [8]: < 1 nM
% cell associated fraction [9]: > 50%

B5: Cpd 203 (peptide)
peptide: Ac-[hLeu]YCIGK(DOTA)[Ala(piperidin-4-yl)]DVYC[Trp(5-F)]F[Val(3-OH)]-NH2
modifications: disulfide 3-11
% cell associated fraction [11]: 25 to 50%

B6: Cpd 230 (peptide)
peptide: Ac-[hLeu]YCIGK(DOTA)[4Pal]DVYC[Trp(5-F)]F[Val(3-OH)]-NH2
modifications: disulfide 3-11
% cell associated fraction [11]: 25 to 50%

B7: Cpd 252 (peptide)
peptide: Ac-[hLeu]YC[Tle]GK([γGlu-DOTA])[4Pal]DVYC[1Nal]FP-NH2
modifications: disulfide 3-11
% cell associated fraction [11]: 25 to 50%

Second part, the molecule after the results:

KD [7]: < 1 nM
KD [8]: < 1 nM
% cell associated fraction [9]: > 50%
B2: Cpd 310 (peptide)
peptide: Ac-[hLeu]YC[Tle]GK[Ala(4-THP)]DVYC[Trp(5-F)]F[Val(3-OH)][dK]([PEG4′-DOTA])-OH
modifications: disulfide 3-11 (inferred)

Kd [10]: 370 nM
KD [8]: < 1 nM
% cell associated fraction [9]: > 50%
B3: Cpd 494 (peptide)
peptide: Ac-[hLeu]YC[Tle]G[PipAla]([PEG4′-DOTA])[Ala(4-THP)]DVYC[Trp(5-F)][(2S,3S)βMePhe][Val(3-OH)][dA]-OH
modifications: disulfide 3-11 (inferred)

Kd [10]: 520 nM
KD [8]: < 1 nM
B4: Cpd 523 (peptide)
peptide: Ac-[hLeu]YC[Tle]G[PipAla]K([PEG4′-DPTA])DVYC[Trp(5-F)][(2S,3S)beta‑Me‑Phe][Val(3-OH)][dA]-OH
modifications: disulfide 3-11 (inferred)
